The text below walks through data of the Immune Epitope Database (IEDB).

Experiment [1] deals with HLA-A*01:01. The experiment can be described thus: IEDB peptide-MHC binding, purified MHC/direct/fluorescence; filed as Kd, often an IC50 or EC50 that approximates it; ≥ and ≤ were set here for values at or beyond the usual limits of such assays.
In experiment [2] the target is HLA-A*02:01. Described as above.
Experiment [3] deals with HLA-A*02:11. The experiment is described as above. The conditions noted are these: source organism: Bacillus cereus 03BB108.
For experiment [4], the target named is HLA-A*02:12. The description is as above. The conditions noted are these: source organism: Bacillus cereus 03BB108.
Experiment [5] addresses HLA-A*02:19. The description is as above. The conditions noted are these: source organism: Bacillus cereus 03BB108.
Experiment [6] addresses HLA-A*03:01. Described as above.
Experiment [7] concerns the target HLA-A*26:03. Described as above. The conditions noted are these: source organism: Bacillus cereus 03BB108.
Experiment [8] deals with HLA-A*69:01. The description is as above.
The target in experiment [9] is HLA-B*07:02. The experiment is described as above.
The target of experiment [10] is HLA-B*08:01. Described as above.
The target in experiment [11] is HLA-B*08:02. The description is as above. The conditions noted are these: source organism: Bacillus cereus 03BB108.
For experiment [12], the target named is HLA-B*08:03. The experiment is described as above.
In experiment [13] the target is HLA-B*15:01. The description is as above. The conditions noted are these: source organism: Bacillus anthracis.
For experiment [14], the target named is HLA-B*15:02. The experiment is described as above. Particulars: source organism: Bacillus cereus 03BB108.
Experiment [15] addresses HLA-B*15:17. The description is as above. Particulars: source organism: Bacillus anthracis.
In experiment [16] the target is HLA-B*27:05. The description is as above.
For experiment [17], the target named is HLA-B*35:01. Described as above. The conditions noted are these: source organism: Bacillus cereus 03BB108.
The target of experiment [18] is HLA-B*46:01. The description is as above.
Experiment [19] has as its target HLA-B*48:01. The experiment is described as above.
Experiment [20] has as its target HLA-B*57:01. Described as above.
The target of experiment [21] is HLA-B*58:01. The description is as above.
Experiment [22] addresses HLA-A*11:01. The experiment in a line: IEDB peptide-MHC binding, purified MHC/competitive/fluorescence; filed as Kd, often an IC50 or EC50 that approximates it; ≥ and ≤ were set here for values at or beyond the usual limits of such assays. Particulars: source organism: Bacillus anthracis str. A0488.
In experiment [23] the target is HLA-A*26:02. The description is as above.
Experiment [24] has as its target HLA-A*68:02. Described as above. The conditions noted are these: source organism: Bacillus anthracis str. A0488.
Experiment [25] addresses HLA-B*15:09. Described as above. The conditions noted are these: source organism: Bacillus anthracis str. A0488.
In experiment [26] the target is HLA-B*39:01. Described as above. The conditions noted are these: source organism: Bacillus anthracis str. A0488.
The target in experiment [27] is HLA-A*29:02. Described as above. The conditions noted are these: source organism: Crocodilepox virus.
For experiment [28], the target named is HLA-A*32:07. The experiment is described as above. The conditions noted are these: source organism: Crocodilepox virus.
Experiment [29] addresses HLA-B*15:42. Described as above. Particulars: source organism: Crocodilepox virus.
The target in experiment [30] is HLA-B*45:06. The description is as above. The conditions noted are these: source organism: Crocodilepox virus.
Experiment [31] deals with HLA-B*83:01. Described as above. The conditions noted are these: source organism: Crocodilepox virus.
The target of experiment [32] is HLA-A*01:01. The experiment in a line: IEDB peptide-MHC binding, purified MHC/competitive/fluorescence; ≥ and ≤ were set here for values at or beyond the usual limits of such assays. Particulars: source organism: Vaccinia virus WR.
Experiment [33] concerns the target HLA-A*02:01. The description is as above. Particulars: source organism: Vaccinia virus WR.
The target in experiment [34] is HLA-A*03:01. The description is as above. The conditions noted are these: source organism: Vaccinia virus WR.
The target of experiment [35] is HLA-A*11:01. Described as above. The conditions noted are these: source organism: Vaccinia virus WR.
In experiment [36] the target is HLA-A*24:02. Described as above. The conditions noted are these: source organism: Vaccinia virus WR.
The target in experiment [37] is HLA-B*15:01. Described as above. Particulars: source organism: Vaccinia virus WR.
For experiment [38], the target named is HLA-A*11:01. The experiment in a line: IEDB peptide-MHC binding, purified MHC/direct/fluorescence; filed as Kd, often an IC50 or EC50 that approximates it; ≥ and ≤ were set here for values at or beyond the usual limits of such assays. Particulars: source organism: Camelpox virus M-96.
In experiment [39] the target is HLA-A*31:01. The experiment is described as above. Particulars: source organism: Camelpox virus M-96.
Experiment [40] deals with HLA-A*68:02. Described as above. Particulars: source organism: Camelpox virus M-96.
Experiment [41] addresses HLA-A*80:01. The description is as above. The conditions noted are these: source organism: Camelpox virus M-96.
The target in experiment [42] is HLA-B*40:01. The description is as above. Particulars: source organism: Camelpox virus M-96.
Experiment [43] addresses HLA-A*26:01. The experiment in a line: IEDB peptide-MHC binding, purified MHC/competitive/fluorescence; filed as Kd, often an IC50 or EC50 that approximates it; ≥ and ≤ were set here for values at or beyond the usual limits of such assays. The conditions noted are these: source organism: Vaccinia virus WR.
Experiment [44] deals with HLA-A*26:03. The experiment is described as above. The conditions noted are these: source organism: Vaccinia virus WR.
The target in experiment [45] is HLA-B*15:01. The description is as above. Particulars: source organism: Vaccinia virus WR.
In experiment [46] the target is HLA-B*15:17. The experiment is described as above. The conditions noted are these: source organism: Vaccinia virus WR.
For experiment [47], the target named is HLA-B*35:01. The description is as above. Particulars: source organism: Vaccinia virus WR.
Setting [48] is: source organism: Bacillus anthracis.
Setting [49] is: source organism: Bacillus cereus 03BB108.
The mark [50] stands for this setting: source organism: Camelpox virus M-96.

As for KVQEWYLSY, the dissociation constant Kd – broadly, the free concentration of one partner at which half of the binding sites on the other are occupied at equilibrium, for simple one-to-one binding – is not below 5 µM in experiment [1] (setting [48]); 14.3 µM in experiment [2] (setting [48]); 0.308 µM in experiment [3]; 1.63 µM in [4]; not below 20 µM in experiment [5]; 0.132 µM in experiment [6] (setting [48]). Moreover, the Kd in experiment [7] was not below 20 µM; in [8] (setting [48]) it was 15 µM; in experiment [9] (setting [48]) it was 5.54 µM; in experiment [10] (setting [49]) it was not below 20 µM; in experiment [11] it was not below 20 µM; in [12] (setting [49]), 0.324 µM. In addition, the Kd in experiment [13] is 0.443 µM; in [14] it was 1.48 µM; in experiment [15] it was 0.121 µM; in experiment [16] (setting [48]) it was 0.0517 µM; in experiment [17], 2.06 µM; in experiment [18] (setting [48]) it was not below 20 µM. In addition, the Kd in experiment [19] (setting [48]) is not below 20 µM; in experiment [20] (setting [48]), not below 20 µM; in [21] (setting [48]), 3.62 µM; in experiment [22] it was 0.0422 µM; in experiment [23] (source organism: Bacillus anthracis str. A0488) it was 1.21 µM; in experiment [24] it was 3.4 µM. The Kd in [25] is not below 20 µM; in [26], 0.0869 µM.
In the case of RVRSMANVY, the Kd in [27] is 0.0151 µM; in [28], 0.0157 µM; in experiment [29], not below 5 µM; in experiment [30], not below 5 µM; in experiment [31], not below 5 µM.
Consider SLFTEQAFY, for which the IC50 (commonly the concentration that gives 50% inhibition) in [32] turned out to be 32 µM; in experiment [33], 15 µM; in experiment [34], 7.04 µM; in experiment [35], 7.85 µM; in [36], 31.2 µM; in experiment [37], 3.93 µM. In addition, the Kd in [1] (setting [50]) is not below 20 µM; in experiment [2] (setting [50]) it was not below 20 µM; in [6] (setting [50]), 4.41 µM; in experiment [38] it was 1.11 µM; in experiment [39] it was not below 20 µM; in [40], not below 20 µM. Besides, the dissociation constant Kd in experiment [8] (setting [50]) was not below 20 µM; in experiment [41], 0.0086 µM; in experiment [9] (setting [50]), not below 20 µM; in [10] (source organism: Variola virus) it was not below 20 µM; in experiment [12] (source organism: Variola virus) it was not below 20 µM; in experiment [16] (setting [50]), not below 20 µM. The Kd was not below 20 µM in [42]; not below 20 µM in experiment [18] (setting [50]); not below 20 µM in experiment [19] (setting [50]); not below 20 µM in [20] (setting [50]); not below 20 µM in experiment [21] (source organism: Variola virus); not below 5 µM in experiment [43]. Also, the equilibrium dissociation constant (Kd) in [23] (source organism: Vaccinia virus WR) is not below 20 µM; in [44], not below 20 µM; in [45], 0.959 µM; in experiment [46], not below 20 µM; in experiment [47], 1.15 µM.
